Measurements taken from patent publication US20150307610A1 (AbbVie / Abbott, published 2015).
One block for each binder: values may come before it.

What was measured:
[1] = target: T1, E. coli RAGE Construct #7, 6His-(Thr)-[RAGE (235-336)] (human); assay: ELISA, antigen coated at 1 ug/ml
T1 construct: N-terminal 6His-(Thr) tag is part of the entry; expressed in E. coli; also called RAGE protein #7
T1 chain: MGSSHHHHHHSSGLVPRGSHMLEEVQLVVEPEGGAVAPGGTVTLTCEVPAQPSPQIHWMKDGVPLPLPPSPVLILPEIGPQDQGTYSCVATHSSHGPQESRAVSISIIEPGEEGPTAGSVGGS
Procedure: (§1) Antigens (purified construct #1-7 proteins) were diluted into Coating Buffer [100 mM NaHCO₃, pH 8.2] to 1 μg/ml, and 100 μl of the resulting solution was then aliquoted into a 96-well Nunc Immuno Plate (Maxi-Sorb Surface, flat bottom, catalog #439454). The plate was sealed with sealing film and incubated at 4° C. overnight. The next day, the plate wells were each washed 3 times with 150 μL PBST buffer [Sigma PBS+0.05% Tween 20]. Then 300 ul of blocking solution (3% NFDM in PBST) was added to each well. The plate was incubated for 2 hours at room temperature and shaking at 100 rpm. After the incubation step, each well was again washed three times with 150 uL PBST. 100 ul of the corresponding antibody to be tested (i.e. 7F9, 11E6, and 4E5) was added at various dilutions made in PBST/0.5% BSA. The plate was then sealed with sealing film and incubated for 2 hours at room temperature and shaking at 100 rpm. Next the antibody solution was drained out of the wells, and each well then washed three times with 200 ul PBST. To each well then 200 ul of a 1:5000 dilution (in PBST/1% NFDM) of conjugated secondary antibody [Donkey anti-mouse HRPO conjugate, Jackson Immuno Research, Catalog #715-035-150] was added. […] Finally, 50 μL of 2M H₂SO₄ was added to each well to stop the reaction and the […] of each well was measured using a microtiter plate reader.

[2] = target: T1, E. coli RAGE Construct #7, …; assay: binding analysis of RAGE mutants of human sRAGE expressed in E. coli
[3] = target: T2, RAGE fragment coated in Fig. 4C (antigen not named on the sheet); assay: direct ELISA: purified E. coli RAGE construct protein coated at 1 ug/mL (construct not named for this panel), mAb titrated, donkey anti-mouse HRP, TMB
T2 construct: Placeholder: the panel cannot be tied to one of m19-m25
Procedure: as §1

binding result [1]: binds
B1: anti-human RAGE monoclonal antibody 4E5 (murine, hybridoma-derived) (antibody, V domains shown)
VH: QVQLQQSGAELVRPGTSVKVSCKASGYAFNNYLIEWIKQRPGQGLEWIGVINPGSGGTNHNEKFKVKATLTADKSSSTAYIQLSSLTSDDSAVYFCARSAGTARARFAYWGQGTLVTVSA
VL: DIQMTQSPSSLSASLGERVSLTCRASQDIGSSLNWLQQEPDGTIKRLIYATSSLDSGVPKRFSGSRSGSDYSLTISSLESEDFVDYYCLQYASFPFTFGSGTKLEIKR
notes: also called mAb4E5; ML37-4E5

binding result [2]: binds
EC50 (read off the curve) [3]: ~0.03 nM
B2: anti-human RAGE monoclonal antibody 11E6 (murine, hybridoma-derived) (antibody, V domains shown)
VH: QIQLVQSGPELKKPGETVKISCKASGYTFTNFGMNWVKQAPGKGLKWMGYINTNTGESIYSEEFKGRFAFSLETSASTAYLQINNLKNEDTATYFCARSRMVTAYGMDYWGQGTSVTVSS
VL: DIVMTQSQKFMSTSVGDRVSITCKASQNVGTAVAWYQQRPGQSPKLLIFSASNRYTGVPDRFTGSGSGTDFTLTLSNMQPEDLADYFCQQYSSYPLTFGVGTKLELKR
notes: also called mAb11E6; ML37-11E6
